From the supplement of paper PMC10126150
± gives the standard deviation of the averaged measurements.

system: ATP; test: switch fluorescence ratio, 500 uM ATP over buffer (Cy3 cluster intensity, sum of 5 cycles each) (fold (ratio)); higher = stronger signal-on switching upon ATP binding; sequences stand for … in TCGTCGGCAGCGTCAGATGTGTATAAGAGACAGTTTTTTTTTTTTTTTTTTTTTTTTT…TC; details: aptamer strand: ATP DNA aptamer (quencher-CACCTGGGGGAGTATTGCGGAGGAAGG + anchor), 100 nM annealed; ATP concentration: 500 uM
Outline: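 Switching-strand clusters labelled with Cy3 on a modified Illumina MiSeq flow-cell were annealed to 100 nM quencher-labelled ATP aptamer, imaged in selection buffer, and re-imaged after 15 min with 500 uM ATP at 22 °C. This was done over five cycles with NaOH stripping and re-annealing in between. The fluorescence ratio is summed target-cycle over summed buffer-cycle Cy3 intensity per cluster, averaged per switch-domain sequence, excluding clusters outside 100-1000 RFU.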
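Note: ATP exposure 15 min at 22 °C before imaging.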

Point of comparison: CGTTTCAGCG, switch fluorescence ratio 0.952 ± 0.051. Against it:
- TAGTTTTTCC — within error, 1.03 ± 0.037
- AGGCAGGGGA — higher, 1.03 ± 0.025
- TGCCCTTCAT — higher, 1.04 ± 0.011
- CAGTTTTGAT — within error, 0.998 ± 0.019
- ATGCGGGCCC — within error, 0.99 ± 0.012
- TAAACGGGTA — higher, 1.04 ± 0.02
- GGGGAGGAAT — within error, 0.971 ± 0.024
- GATCATTCTG — within error, 0.966 ± 0.036
- AGTTAATGAC — within error, 0.997 ± 0.013
- GTTAGAAAAA — higher, 1.03 ± 0.023
- ACGAGGGGGA — higher, 1.05 ± 0.016
- GGGCTATGCT — within error, 1 ± 0.037
- TATCGGTATT — within error, 1 ± 0.039
- TTTGGGCTTG — higher, 1.013 ± 0.0054
- TAATGTATTA — within error, 1.01 ± 0.027
- TATTGGTTGT — within error, 0.999 ± 0.029
- GGGGGGAACA — within error, 1.01 ± 0.029
- GGCGCGTGTC — within error, 0.9945 ± 0.009
- CTTGCATTTT — higher, 1.04 ± 0.031
- GTCGGTGTTG — within error, 0.98952 ± 0.00042
- ATATGATTGA — within error, 0.9686 ± 0.0044
- ACATAAAGGG — higher, 1.03 ± 0.024
- AAATGTGACG — within error, 1.03 ± 0.028
- CGAAAAGAAT — within error, 1.02 ± 0.029
- ATAGTTTTCG — within error, 1 ± 0.034
- TGGGCTGTTT — within error, 1.012 ± 0.01
- GGAGAGGCGT — within error, 1 ± 0.013
- ATAGTAATCG — within error, 0.988 ± 0.064
- TCAGGCTAGC — higher, 1.07 ± 0.026
- CGGCTTAAGG — within error, 1.01 ± 0.019
- CTTGATTTGA — within error, 1.001 ± 0.0089
- CTCGTTTAGA — higher, 1.022 ± 0.0084
- CTTTTTTTGT — within error, 0.995 ± 0.025
- ATGTAATAGG — within error, 0.995 ± 0.046
- CGCGGAGCTT — within error, 1.03 ± 0.033
- ATGATGGTCC — within error, 0.9778 ± 0.0014
- CGCTTTAGTT — within error, 0.986 ± 0.026
- AAGGTGCCGG — higher, 1.0373 ± 0.00076
- GAGCGGCTTC — higher, 1.027 ± 0.0097
- GAAATGTTGG — within error, 0.981 ± 0.024
- AAGACTGTTT — within error, 0.954 ± 0.026
- AGGTCGTGGG — within error, 0.996 ± 0.016
- ATGAAATCTG — within error, 1.06 ± 0.074
- GTAAGCAAAG — higher, 1.2 ± 0.081
- GCGATAAATT — within error, 0.983 ± 0.045
- GTGTTAAAGG — within error, 0.992 ± 0.013
- TGCTTGGGGG — within error, 0.979 ± 0.016
- ATATTGGGGA — within error, 1.01 ± 0.025
- ACCGATTGTT — higher, 1.017 ± 0.0016
- GTCTAAGGGA — within error, 0.968 ± 0.024
- TCCTTGGGGA — within error, 1.08 ± 0.086
- CAGTATGTTT — within error, 0.974 ± 0.044
- TGGAGAGGAT — within error, 0.9825 ± 0.0026
- GTAGGGGATA — within error, 1.02 ± 0.026
- GGGCAAGAAT — within error, 0.997 ± 0.017
- TTGTTGGGGT — within error, 1.05 ± 0.12
- TTCGGCGCGG — within error, 1.21 ± 0.32
- ATAAGGGTTC — within error, 1.03 ± 0.043
- TTTGCATGCT — higher, 1.024 ± 0.0036
- TAGATCATGC — within error, 0.994 ± 0.024
- GCAAATTCCG — higher, 1.026 ± 0.0095
- AGCTTTCCTA — within error, 0.9963 ± 0.007
- GTTGTAAAAA — within error, 0.968 ± 0.046
- TTTCATATGG — within error, 0.994 ± 0.024
- TCATTAATTT — within error, 0.9873 ± 0.0086
- TTCTGTGGTG — within error, 1.01 ± 0.028
- GTAATTGCTG — within error, 1.01 ± 0.059
- GTGGTGTATC — within error, 1.02 ± 0.019
- ATATGTGGAA — higher, 1.015 ± 0.01
- GCCCGATCAC — higher, 1.151 ± 0.0086
- TAATGAGTCA — within error, 1 ± 0.081
- AGCACGCACA — higher, 1.77 ± 0.06
- GGGTCCAAGG — within error, 1.03 ± 0.029
- TTTACAGTTG — within error, 0.96 ± 0.014
- CCGAGAGGGG — within error, 0.999 ± 0.041
- GGAGGAAGGC — higher, 1.75 ± 0.58
- CTTCGGTGTG — within error, 1.04 ± 0.13
- TTTTCTTGGG — within error, 1.03 ± 0.071
- TTTGTTTTCG — within error, 1.02 ± 0.041
- GACCAGTAAG — within error, 0.9819 ± 0.0091
- ATGAGTTACT — higher, 1.005 ± 0.0051
- CCTGGGGGTC — higher, 1.03 ± 0.024
- ATCAGTGGTA — within error, 0.987 ± 0.028
- TTATACGGTT — within error, 1.01 ± 0.012
- TAATGTTATT — within error, 0.987 ± 0.017
- CATGTTGGGT — higher, 1.008 ± 0.007
- ATTGAGGGGG — within error, 1.04 ± 0.052
- CTGGGTTTAA — higher, 1.02 ± 0.013
- TAAGGGGCCA — higher, 1.024 ± 0.0088
- GGTTTGGTTC — within error, 0.957 ± 0.083
- TTGGCACAAT — higher, 1.05 ± 0.026
- GGGCATGGCT — within error, 0.99 ± 0.016
- TGGCCGGCTT — higher, 1.044 ± 0.0066
- TACAAGAAGG — higher, 1.015 ± 0.0066
- TTATATGGGA — within error, 1.01 ± 0.018
- CATCTACTGG — within error, 1.01 ± 0.018
- GACACTCAGG — higher, 1.083 ± 0.0013
- GGGTTAAGTG — within error, 1.02 ± 0.018
- CAAGGGCGGC — within error, 0.973 ± 0.012
- TGTATGATGG — within error, 1.02 ± 0.031
- GATGTATATT — within error, 1.002 ± 0.004
- ATTGCGGTCA — within error, 1.01 ± 0.048
- GATTGAGAAG — within error, 0.996 ± 0.023
- ATCTGGAATA — higher, 1.24 ± 0.039
- CTTGGTGGAC — within error, 0.97 ± 0.048
- CTAACCAGCC — higher, 1.6 ± 0.13
- TTCCATTTGT — higher, 1.031 ± 0.0019
- CTGGACCTTC — higher, 1.66 ± 0.043
- TAGGGGAATC — within error, 0.992 ± 0.02
- AAATTCTGGG — within error, 0.996 ± 0.0075
- GATTCTTATG — within error, 1.03 ± 0.036
- TTACTTATCT — within error, 1.02 ± 0.033
- CAACTCCGGA — higher, 1.204 ± 0.0066
- AAGTCAGTGC — higher, 1.11 ± 0.013
- CGAACAGGTT — higher, 1.04 ± 0.02
- TGACAGTATC — higher, 1.08 ± 0.011
- TCCTGATTTT — within error, 1.02 ± 0.037
- CTTGGGAATT — within error, 0.979 ± 0.044
- GGGGTTGTCG — within error, 0.989 ± 0.1
- TATTATGGCA — within error, 1.02 ± 0.08
- TGGGTAACGA — within error, 0.962 ± 0.021
- CGGATTTTCA — within error, 0.9999 ± 0.0067
- GGAAGTAGCC — within error, 0.959 ± 0.038
- GGGAGCATTG — within error, 1.02 ± 0.037
- GGGTTTATGC — within error, 0.9921 ± 0.0067
- CTCAGTTTTA — within error, 1.002 ± 0.0083
- GGCGTTGGGT — within error, 0.9929 ± 0.0096
- TGGCAGCAGG — within error, 1 ± 0.024
- TAAGGGCTGC — higher, 1.036 ± 0.0084
- AGTGTGAGTT — higher, 1.025 ± 0.01
- GCGTAGGGGG — within error, 0.95 ± 0.046
- TTCTATTGTT — within error, 0.999 ± 0.017
- GAGACCCTAT — higher, 1.029 ± 0.0074
- CGTAGATAGC — higher, 1.07 ± 0.02
- ACAAATGCAA — higher, 1.12 ± 0.037
- AATGTGCGGG — within error, 0.963 ± 0.042
- TTGTGAAAAA — within error, 0.972 ± 0.026
- TCTGAAAGTC — within error, 0.9963 ± 0.0057
- ACTTGGTTGG — within error, 0.9869 ± 0.00088
- TTAAAAATCA — within error, 0.984 ± 0.025
- CATGAGAAGG — higher, 1.0186 ± 0.001
- GATTTTTCAG — higher, 1.019 ± 0.006
- ATTTGAGGTT — higher, 1.006 ± 0.005
- CGTCGAGGGA — within error, 1.1 ± 0.12
- CAGTTCTGGG — within error, 0.9872 ± 0.0097
- GAGGAAAGCA — within error, 0.9815 ± 0.0056
- TTACAGGGAG — higher, 1.02 ± 0.01
- TAGTGGGATT — within error, 0.994 ± 0.016
- TCCTGGTGCG — higher, 1.13 ± 0.024
- TTGGCTGGCT — higher, 1.08 ± 0.071
- AAGGGCTTAT — within error, 0.981 ± 0.019
- TTGACGTGTC — within error, 1 ± 0.043
- AGGTTCATCT — higher, 1.011 ± 0.0057
- TAATCGTTTG — within error, 0.962 ± 0.01
- GACGGGTATA — within error, 1.36 ± 0.47
- ATGCGATGGC — higher, 1.02 ± 0.0072
- CACATTTTCA — within error, 1.01 ± 0.027
- GTTGCAGGGT — within error, 1.004 ± 0.0065
- GAATGAAGGT — within error, 0.985 ± 0.013
- CTAAGGGGAT — within error, 1.09 ± 0.15
- TTGAGAGTTG — within error, 0.984 ± 0.046
- CTTGTTATTG — within error, 0.9602 ± 0.0071
- TCACAGTAAT — higher, 1.13 ± 0.063
- AACGGTTTAA — higher, 1.05 ± 0.014
- GGCTTAGTTG — within error, 0.982 ± 0.0024
- GTGTTCAGGG — within error, 1.02 ± 0.021
- TTGCGGGATG — within error, 1.04 ± 0.051
- CATGGTGTGG — within error, 1.01 ± 0.031
- TTAAAAATGC — higher, 1.02 ± 0.011
- AATGGTCAT — within error, 0.991 ± 0.071
- GTTGGGTGAG — within error, 0.987 ± 0.02
- TTTGATTGGT — within error, 0.99 ± 0.038
- ATGTTTTCTG — within error, 0.968 ± 0.04
- GCAGGACATA — higher, 1.06 ± 0.027
- GGGGCTTGGA — within error, 1 ± 0.017
- GAGGGGGAAG — within error, 1 ± 0.049
- TCAGTGACGT — within error, 0.9827 ± 0.0096
- CGGTACGAGC — within error, 0.992 ± 0.046
- CAGTGATAAA — higher, 1.008 ± 0.0066
- ATATAAATTT — within error, 1 ± 0.025
- GATATACTTT — within error, 0.99 ± 0.027
- TGAGCTAGCT — within error, 1.01 ± 0.033
- CAGGATGCGA — higher, 1.05 ± 0.016
- TAACTATTT — within error, 1 ± 0.046
- AGGGTTGGGT — within error, 1.01 ± 0.03
- TGTTTATGTT — within error, 0.9975 ± 0.0064
- CTAACATTTT — within error, 1.01 ± 0.018
- CCGGGATTTT — within error, 1.09 ± 0.13
- GGTTGAGTCG — within error, 0.989 ± 0.014
- AGGGGAAGCC — within error, 1.02 ± 0.066
- TGGGGGGG — within error, 1 ± 0.024
- GTTAATTGAT — within error, 1 ± 0.027
- GTGTCGGGGA — within error, 1.01 ± 0.071
- ACAAAGCGCC — higher, 1.06 ± 0.015
- GAGGGAACAG — within error, 1.01 ± 0.013
- AGGGTAGGTG — higher, 1.09 ± 0.012
- TTGTAGGAGG — within error, 0.9811 ± 0.0032
- CCTTCTAGTT — higher, 1.035 ± 0.0018
- GTGGGGCGCA — within error, 1.01 ± 0.026
